Results: article PMC4543619 (British Journal of Pharmacology, 2015)
Read-outs that look alike come from different tables or passages of the source.

How the values were obtained:
[1] = target: T1, native/full length GTP cyclohydrolase 1 (F‐GCH1), His6-tagged (human, UniProt P30793 1-250); assay: SPR
T1 sequence (looked up): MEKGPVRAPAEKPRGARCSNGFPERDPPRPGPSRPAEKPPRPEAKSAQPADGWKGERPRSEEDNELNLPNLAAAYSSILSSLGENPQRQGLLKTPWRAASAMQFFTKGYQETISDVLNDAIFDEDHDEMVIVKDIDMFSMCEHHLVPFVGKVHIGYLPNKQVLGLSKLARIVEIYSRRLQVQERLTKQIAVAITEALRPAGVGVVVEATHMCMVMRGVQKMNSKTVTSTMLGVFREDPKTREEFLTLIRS

[2] = target: T1, native/full length GTP cyclohydrolase 1 …; assay: SPR; remark: listed apart in the source

- Kd [1]: 1 nM
- Kd [2]: 8 nM
B1: GCH1 feedback regulatory protein (GFRP), His6 tag cleaved (natural protein)
chain: not shown
